# Source: patent US20050153887A1
# B1: Wnt-1 (cotransfected into 293T cells for the reporter assay) (ligand, UniProt P04628 28-370, looked up, species assumed)
# Proto-oncogene Wnt-1: ANSSGRWWGIVNVASSTNLLTDSKSLQLVLEPSLQLLSRKQRRLIRQNPGILHSVSGGLQSAVRECKWQFRNRRWNCPTAPGPHLFGKIVNRGCRETAFIFAITSAGVTHSVARSCSEGSIESCTCDYRRRGPGGPDWHWGGCSDNIDFGRLFGREFVDSGEKGRDLRFLMNLHNNEAGRTTVFSEMRQECKCHGMSGSCTVRTCWMRLPTLRAVGDVLRDRFDGASRVLYGNRGSNRASRAELLRLEPEDPAHKPPSPHDLVYFEKSPNFCTYSGRLGTAGTAGRACNSSSPALDGCELLCCGRGHRTRTQRVTERCNCTFHWCCHVSCRNCTHTRVLHECL
# Tests used:
# Assay in all cases: cell-based or functional assay
# [1] = target: Dishevelled (overexpressed in 293T cells for the reporter assay)
# [2] = target: Ryk (DNA construct expressing Ryk, transfected into 293T cells for the reporter assays)
# [3] = target: endogenous Ryk of mouse (mouse) (UniProt Q01887)
# [4] = target: endogenous Ryk in 293T cells (human) (UniProt P34925)
# Chain of UniProt P34925 (P34925 other isoform, or with tags, fused parts or gaps limits assumed): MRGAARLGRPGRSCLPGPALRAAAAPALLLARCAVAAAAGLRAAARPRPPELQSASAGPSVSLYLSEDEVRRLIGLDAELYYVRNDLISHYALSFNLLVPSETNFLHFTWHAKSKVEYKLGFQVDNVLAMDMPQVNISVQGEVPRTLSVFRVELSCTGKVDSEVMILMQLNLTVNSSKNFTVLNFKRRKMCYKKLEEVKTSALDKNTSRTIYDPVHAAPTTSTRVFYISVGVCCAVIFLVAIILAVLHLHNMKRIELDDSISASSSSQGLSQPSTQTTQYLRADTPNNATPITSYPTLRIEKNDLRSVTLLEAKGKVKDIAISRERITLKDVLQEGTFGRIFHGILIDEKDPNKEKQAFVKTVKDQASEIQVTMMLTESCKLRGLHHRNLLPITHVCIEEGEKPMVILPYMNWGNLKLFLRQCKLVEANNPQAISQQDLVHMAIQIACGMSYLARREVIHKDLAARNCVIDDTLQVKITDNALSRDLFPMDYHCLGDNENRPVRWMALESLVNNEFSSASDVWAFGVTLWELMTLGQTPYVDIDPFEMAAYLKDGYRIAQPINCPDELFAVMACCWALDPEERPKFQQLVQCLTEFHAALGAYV
# Chain of UniProt Q01887 (Q01887 35-594 limits assumed): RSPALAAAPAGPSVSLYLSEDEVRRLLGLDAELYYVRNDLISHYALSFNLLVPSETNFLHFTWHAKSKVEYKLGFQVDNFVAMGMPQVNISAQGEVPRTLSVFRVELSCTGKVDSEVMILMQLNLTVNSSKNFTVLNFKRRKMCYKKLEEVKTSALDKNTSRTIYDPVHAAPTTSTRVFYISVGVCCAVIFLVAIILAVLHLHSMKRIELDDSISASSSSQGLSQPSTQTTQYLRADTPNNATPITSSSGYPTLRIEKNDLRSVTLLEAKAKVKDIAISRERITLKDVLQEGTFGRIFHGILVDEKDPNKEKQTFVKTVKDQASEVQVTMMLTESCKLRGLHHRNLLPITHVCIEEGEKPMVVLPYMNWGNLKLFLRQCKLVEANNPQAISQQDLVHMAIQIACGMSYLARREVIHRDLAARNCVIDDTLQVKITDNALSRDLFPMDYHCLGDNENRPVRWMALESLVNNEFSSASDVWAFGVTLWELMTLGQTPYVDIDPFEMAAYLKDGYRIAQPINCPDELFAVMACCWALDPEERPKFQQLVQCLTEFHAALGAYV
molecule,measurement,setting,value
"Ryk (DNA construct expressing Ryk, transfected into 293T cells for the reporter assays) (receptor)",activation of the TCF-luciferase reporter on co-expression of Ryk with Dishevelled (Dishevelled alone about 15-fold),[1],25 fold
Wnt3a (Wnt3a conditioned medium) (ligand),activation of the TCF-luciferase reporter in 293T cells transfected with Ryk and treated with Wnt3a conditioned medium,[2],5 fold
same,"average length of neurites of DRG explants in Wnt3a conditioned medium, Ryk siRNA mice against wild type",[3],2 fold
B1,activation of the TCF-luciferase reporter in wild type 293T cells after Wnt stimulation,[4],25 fold
same,inhibition of TCF-driven transcription induced by Wnt-1 in Ryk siRNA-containing 293T cells,[4],12 fold
